Laboratory results from US20090162366A1.

Molecular target: M2G peptide conjugated with BSA (influenza A virus, A/Puerto Rico/8/34 (H1N1))
Assay: peptide-BSA ELISA (++ EC50<10^-9M; + 10^-9M<EC50<10^-8M)

## mouse anti-M2 antibody 14C2
  EC50: < 1 nM
